The supplement of paper PMC5998384

Legend:
[1] = tested on: HeLa Kyoto; test: thermal stability score vs G1/S (z-score of summed log2 fold changes over temperatures); higher = more thermally stable than in G1/S
[2] = tested on: HeLa Kyoto; test: solubility in G1/S (NP-40 vs SDS abundance) (log2 ratio); higher = more soluble; details: cell cycle stage: G1/S
[3] = tested on: HeLa Kyoto; test: melting temperature (median over replicates), in situ; higher = more thermally stable
[4] = tested on: HeLa Kyoto; test: solubility change mitosis vs G1/S (difference of NP-40 vs SDS log2 ratios) (log2 ratio difference); higher = more soluble in mitosis
[5] = cell cycle stage: early G1 (4.5 h after nocodazole release)
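Throughout, for melting temperature (median over replicates), in situ: HeLa Kyoto cells synchronized by double thymidine or nocodazole block, proteins quantified by TMT10plex mass spectrometry, three independent biological replicates.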
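Throughout, for solubility change mitosis vs G1/S (difference of NP-40 vs SDS log2 ratios): synchronized HeLa Kyoto cells (double thymidine block for G1/S, nocodazole release for mitosis), protein amounts in NP-40 versus SDS lysates quantified by mass spectrometry, three biological replicates.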
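Throughout, for solubility in G1/S (NP-40 vs SDS abundance): HeLa Kyoto cells arrested at G1/S by double thymidine block, proteins quantified by TMT10plex mass spectrometry in mild NP-40 versus SDS extracts, three biological replicates.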
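Throughout, for thermal stability score vs G1/S (z-score of summed log2 fold changes over temperatures): synchronized HeLa Kyoto cells, proteins quantified by TMT10plex mass spectrometry, three biological replicates, mitosis taken 0.5 h after nocodazole release, G1/S directly after double thymidine block.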

Row | Substance | thermal stability score [1, 5] | thermal stability score ([1]; cell cycle stage: mitosis) | solubility in G1/S (log2) [2] | melting temperature ([3]; cell cycle stage: G1/S) [°C] | melting temperature ([3]; cell cycle stage: mitosis) [°C] | solubility change mitosis (log2) [4]
1 | MSLLFSRCNSIVTVKKNKRHMAEVNASPLKHFVTAKKKINGIFEQLGAYIQESATFLEDTYRNAELDPVTTEEQVLDVKGYLSKVRGISEVLARRHMKVAFFGRTSNGKSTVINAMLWDKVLPSGIGHTTNCFLRVEGTDGHEAFLLTEGSEEKRSAKTVNQLAHALHQDKQLHAGSLVSVMWPNSKCPLLKDDLVLMDSPGIDVTTELDSWIDKFCLDADVFVLVANSESTLMQTEKHFFHKVSERLSRPNIFILNNRWDASASEPEYMEEVRRQHMERCTSFLVDELGVVDRSQAGDRIFFVSAKEVLNARIQKAQGMPEGGGALAEGFQVRMFEFQNFERRFEECISQSAVKTKFEQHTVRAKQIAEAVRLIMDSLHMAAREQQVYCEEMREERQDRLKFIDKQLELLAQDYKLRIKQITEEVERQVSTAMAEEIRRLSVLVDDYQMDFHPSPVVLKVYKNELHRHIEEGLGRNMSDRCSTAITNSLQTMQQDMIDGLKPLLPVSVRSQIDMLVPRQCFSLNYDLNCDKLCADFQEDIEFHFSLGWTMLVNRFLGPKNSRRALMGYNDQVQRPIPLTPANPSMPPLPQGSLTQEEFMVSMVTGLASLTSRTSMGILVVGGVVWKAVGWRLIALSFGLYGLLYVYERLTWTTKAKERAFKRQFVEHASEKLQLVISYTGSNCSHQVQQELSGTFAHLCQQVDVTRENLEQEIAAMNKKIEVLDSLQSKAKLLRNKAGWLDSELNMFTHQYLQPSR [MFN2] | 1.32 | 0.83 | -0.174 | 50.8 | 51.3 | -0.043
2 | EHBP1 | 0.393 | 0.935 | 0.0745 | 50.3 | 52.4 | -0.0155
3 | MAAALLARASGPARRALCPRAWRQLHTIYQSVELPETHQMLLQTCRDFAEKELFPIAAQVDKEHLFPAAQVKKMGGLGLLAMDVPEELGGAGLDYLAYAIAMEEISRGCASTGVIMSVNNSLYLGPILKFGSKEQKQAWVTPFTSGDKIGCFALSEPGNGSDAGAASTTARAEGDSWVLNGTKAWITNAWEASAAVVFASTDRALQNKGISAFLVPMPTPGLTLGKKEDKLGIRGSSTANLIFEDCRIPKDSILGEPGMGFKIAMQTLDMGRIGIASQALGIAQTALDCAVNYAENRMAFGAPLTKLQVIQFKLADMALALESARLLTWRAAMLKDNKKPFIKEAAMAKLAASEAATAISHQAIQILGGMGYVTEMPAERHYRDARITEIYEGTSEIQRLVIAGHLLRSYRS [ACADS] | -1.85 | -3.37 | 0.191 | 55.3 | 53.9 | -0.159
4 | MRVAGAAKLVVAVAVFLLTFYVISQVFEIKMDASLGNLFARSALDTAARSTKPPRYKCGISKACPEKHFAFKMASGAANVVGPKICLEDNVLMSGVKNNVGRGINVALANGKTGEVLDTKYFDMWGGDVAPFIEFLKAIQDGTIVLMGTYDDGATKLNDEARRLIADLGSTSITNLGFRDNWVFCGGKGIKTKSPFEQHIKNNKDTNKYEGWPEVVEMEGCIPQKQD [FAM3C] | 0.362 | 0.765 | 0.634 | 54.2 | 53.2 | 0.0546
5 | MFSQQQQQQLQQQQQQLQQLQQQQLQQQQLQQQQLLQLQQLLQQSPPQAPLPMAVSRGLPPQQPQQPLLNLQGTNSASLLNGSMLQRALLLQQLQGLDQFAMPPATYDTAGLTMPTATLGNLRGYGMASPGLAAPSLTPPQLATPNLQQFFPQATRQSLLGPPPVGVPMNPSQFNLSGRNPQKQARTSSSTTPNRKDSSSQTMPVEDKSDPPEGSEEAAEPRMDTPEDQDLPPCPEDIAKEKRTPAPEPEPCEASELPAKRLRSSEEPTEKEPPGQLQVKAQPQARMTVPKQTQTPDLLPEALEAQVLPRFQPRVLQVQAQVQSQTQPRIPSTDTQVQPKLQKQAQTQTSPEHLVLQQKQVQPQLQQEAEPQKQVQPQVQPQAHSQGPRQVQLQQEAEPLKQVQPQVQPQAHSQPPRQVQLQLQKQVQTQTYPQVHTQAQPSVQPQEHPPAQVSVQPPEQTHEQPHTQPQVSLLAPEQTPVVVHVCGLEMPPDAVEAGGGMEKTLPEPVGTQVSMEEIQNESACGLDVGECENRAREMPGVWGAGGSLKVTILQSSDSRAFSTVPLTPVPRPSDSVSSTPAATSTPSKQALQFFCYICKASCSSQQEFQDHMSEPQHQQRLGEIQHMSQACLLSLLPVPRDVLETEDEEPPPRRWCNTCQLYYMGDLIQHRRTQDHKIAKQSLRPFCTVCNRYFKTPRKFVEHVKSQGHKDKAKELKSLEKEIAGQDEDHFITVDAVGCFEGDEEEEEDDEDEEEIEVEEELCKQVRSRDISREEWKGSETYSPNTAYGVDFLVPVMGYICRICHKFYHSNSGAQLSHCKSLGHFENLQKYKAAKNPSPTTRPVSRRCAINARNALTALFTSSGRPPSQPNTQDKTPSKVTARPSQPPLPRRSTRLKT [CIZ1] | 0.59 | 2.85 | -0.24 | 51.5 | 53.7 | 0.168
6 | MSWGTELWDQFDSLDKHTQWGIDFLERYAKFVKERIEIEQNYAKQLRNLVKKYCPKRSSKDEEPRFTSCVAFFNILNELNDYAGQREVVAEEMAHRVYGELMRYAHDLKTERKMHLQEGRKAQQYLDMCWKQMDNSKKKFERECREAEKAQQSYERLDNDTNATKADVEKAKQQLNLRTHMADENKNEYAAQLQNFNGEQHKHFYVVIPQIYKQLQEMDERRTIKLSECYRGFADSERKVIPIISKCLEGMILAAKSVDERRDSQMVVDSFKSGFEPPGDFPFEDYSQHIYRTISDGTISASKQESGKMDAKTTVGKAKGKLWLFGKKPKPQSPPLTPTSLFTSSTPNGSQFLTFSIEPVHYCMNEIKTGKPRIPSFRSLKRGWSVKMGPALEDFSHLPPEQRRKKLQQRIDELNRELQKESDQKDALNKMKDVYEKNPQMGDPGSLQPKLAETMNNIDRLRMEIHKNEAWLSEVEGKTGGRGDRRHSSDINHLVTQGRESPEGSYTDDANQEVRGPPQQHGHHNEFDDEFEDDDPLPAIGHCKAIYPFDGHNEGTLAMKEGEVLYIIEEDKGDGWTRARRQNGEEGYVPTSYIDVTLEKNSKGS [FNBP1L] | -0.0981 | -0.548 | 0.339 | 51.1 | 51.1 | -0.034
7 | MAQADIALIGLAVMGQNLILNMNDHGFVVCAFNRTVSKVDDFLANEAKGTKVVGAQSLKEMVSKLKKPRRIILLVKAGQAVDDFIEKLVPLLDTGDIIIDGGNSEYRDTTRRCRDLKAKGILFVGSGVSGGEEGARYGPSLMPGGNKEAWPHIKTIFQGIAAKVGTGEPCCDWVGDEGAGHFVKMVHNGIEYGDMQLICEAYHLMKDVLGMAQDEMAQAFEDWNKTELDSFLIEITANILKFQDTDGKHLLPKIRDSAGQKGTGKWTAISALEYGVPVTLIGEAVFARCLSSLKDERIQASKKLKGPQKFQFDGDKKSFLEDIRKALYASKIISYAQGFMLLRQAATEFGWTLNYGGIALMWRGGCIIRSVFLGKIKDAFDRNPELQNLLLDDFFKSAVENCQDSWRRAVSTGVQAGIPMPCFTTALSFYDGYRHEMLPASLIQAQRDYFGAHTYELLAKPGQFIHTNWTGHGGTVSSSSYNA [PGD] | 1.53 | 0.62 | 0.123 | 54.4 | 54.4 | -0.184
8 | MPMYQVKPYHGGGAPLRVELPTCMYRLPNVHGRSYGPAPGAGHVQEESNLSLQALESRQDDILKRLYELKAAVDGLSKMIQTPDADLDVTNIIQADEPTTLTTNALDLNSVLGKDYGALKDIVINANPASPPLSLLVLHRLLCEHFRVLSTVHTHSSVKSVPENLLKCFGEQNKKQPRQDYQLGFTLIWKNVPKTQMKFSIQTMCPIEGEGNIARFLFSLFGQKHNAVNATLIDSWVDIAIFQLKEGSSKEKAAVFRSMNSALGKSPWLAGNELTVADVVLWSVLQQIGGCSVTVPANVQRWMRSCENLAPFNTALKLLK [AIMP2] | 0.153 | 1.22 | 0.321 | 48.9 | 49.6 | 0.104
9 | MAATLGPLGSWQQWRRCLSARDGSRMLLLLLLLGSGQGPQQVGAGQTFEYLKREHSLSKPYQGVGTGSSSLWNLMGNAMVMTQYIRLTPDMQSKQGALWNRVPCFLRDWELQVHFKIHGQGKKNLHGDGLAIWYTKDRMQPGPVFGNMDKFVGLGVFVDTYPNEEKQQERVFPYISAMVNNGSLSYDHERDGRPTELGGCTAIVRNLHYDTFLVIRYVKRHLTIMMDIDGKHEWRDCIEVPGVRLPRGYYFGTSSITGDLSDNHDVISLKLFELTVERTPEEEKLHRDVFLPSVDNMKLPEMTAPLPPLSGLALFLIVFFSLVFSVFAIVIGIILYNKWQEQSRKRFY [LMAN2L] | -0.409 | -1.27 | -0.0714 | 53.7 | 54.1 | -0.146
10 | MMP15 | -0.0989 | -0.65 | -0.181 | 54.4 | 55.3 | -0.0164
11 | MWTLVSWVALTAGLVAGTRCPDGQFCPVACCLDPGGASYSCCRPLLDKWPTTLSRHLGGPCQVDAHCSAGHSCIFTVSGTSSCCPFPEAVACGDGHHCCPRGFHCSADGRSCFQRSGNNSVGAIQCPDSQFECPDFSTCCVMVDGSWGCCPMPQASCCEDRVHCCPHGAFCDLVHTRCITPTGTHPLAKKLPAQRTNRAVALSSSVMCPDARSRCPDGSTCCELPSGKYGCCPMPNATCCSDHLHCCPQDTVCDLIQSKCLSKENATTDLLTKLPAHTVGDVKCDMEVSCPDGYTCCRLQSGAWGCCPFTQAVCCEDHIHCCPAGFTCDTQKGTCEQGPHQVPWMEKAPAHLSLPDPQALKRDVPCDNVSSCPSSDTCCQLTSGEWGCCPIPEAVCCSDHQHCCPQGYTCVAEGQCQRGSEIVAGLEKMPARRASLSHPRDIGCDQHTSCPVGQTCCPSLGGSWACCQLPHAVCCEDRQHCCPAGYTCNVKARSCEKEVVSAQPATFLARSPHVGVKDVECGEGHFCHDNQTCCRDNRQGWACCPYRQGVCCADRRHCCPAGFRCAARGTKCLRREAPRWDAPLRDPALRQLL [GRN] | -2.57 | -3.69 | 0.135 | 54.9 | 60.5 | -0.134
12 | MVLNSLDKMIQLQKNTANIRNICVLAHVDHGKTTLADCLISSNGIISSRLAGKLRYMDSREDEQIRGITMKSSAISLHYATGNEEYLINLIDSPGHVDFSSEVSTAVRICDGCIIVVDAVEGVCPQTQAVLRQAWLENIRPVLVINKIDRLIVELKFTPQEAYSHLKNILEQINALTGTLFTSKVLEERAERETESQVNPNSEQGEQVYDWSTGLEDTDDSHLYFSPEQGNVVFTSAIDGWGFGIEHFARIYSQKIGIKKEVLMKTLWGDYYINMKAKKIMKGDQAKGKKPLFVQLILENIWSLYDAVLKKDKDKIDKIVTSLGLKIGAREARHSDPKVQINAICSQWLPISHAVLAMVCQKLPSPLDITAERVERLMCTGSQTFDSFPPETQALKAAFMKCGSEDTAPVIIFVSKMFAVDAKALPQNKPRPLTQEEIAQRRERARQRHAEKLAAAQGQAPLEPTQDGSAIETCPKGEEPRGDEQQVESMTPKPVLQEENNQESFIAFARVFSGVARRGKKIFVLGPKYSPLEFLRRVPLGFSAPPDGLPQVPHMAYCALENLYLLMGRELEYLEEVPPGNVLGIGGLQDFVLKSATLCSLPSCPPFIPLNFEATPIVRVAVEPKHPSEMPQLVKGMKLLNQADPCVQILIQETGEHVLVTAGEVHLQRCLDDLKERFAKIHISVSEPIIPFRETITKPPKVDMVNEEIGKQQKVAVIHQMKEDQSKIPEGIQVDSDGLITITTPNKLATLSVRAMPLPEEVTQILEENSDLIRSMEQLTSSLNEGENTHMIHQKTQEKIWEFKGKLEQHLTGRRWRNIVDQIWSFGPRKCGPNILVNKSEDFQNSVWTGPADKASKEASRYRDLGNSIVSGFQLATLSGPMCEEPLMGVCFVLEKWDLSKFEEQGASDLAKEGQEENETCSGGNENQELQDGCSEAFEKRTSQKGESPLTDCYGPFSGQLIATMKEACRYALQVKPQRLMAAMYTCDIMATGDVLGRVYAVLSKREGRVLQEEMKEGTDMFIIKAVLPVAESFGFADEIRKRTSGLASPQLVFSHWEIIPSDPFWVPTTEEEYLHFGEKADSENQARKYMNAVRKRKGLYVEEKIVEHAEKQRTLSKNK [EFTUD1] | 0.0185 | -0.212 | -0.156 | 50.3 | 50 | -0.154
